The values below are quoted from earlier work in PMC8836397.

Data set [1] concerns the target Leu-enkephalin (Homo sapiens) (UniProt P01210).
Sequence of UniProt P01210 (P01210 whole entry, looked up): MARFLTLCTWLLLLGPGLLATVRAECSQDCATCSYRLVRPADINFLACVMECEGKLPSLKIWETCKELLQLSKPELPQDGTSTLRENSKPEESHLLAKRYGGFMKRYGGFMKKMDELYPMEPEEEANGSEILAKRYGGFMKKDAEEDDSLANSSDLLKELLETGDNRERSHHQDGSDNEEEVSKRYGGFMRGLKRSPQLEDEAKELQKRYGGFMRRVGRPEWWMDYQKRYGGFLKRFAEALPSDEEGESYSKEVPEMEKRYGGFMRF

A word on the Ki: it is the equilibrium dissociation constant of an inhibitor or competing ligand from its target. For DPP III (from UniProt Q9NY33), the Ki is 126 nM with WVYPW (tynorphin analog) and 100 nM in the data set with IVYPW (tynorphin analog).

By Kd is commonly meant a measure of binding affinity in units of concentration. As to “DPP III (inactive variant) (from UniProt Q9NY33)”, in data set [1], the Kd was 3.6 µM.
